The text below walks through data of publication PMC11488661 (Science immunology, 2024).

What is called Kd is a measure of binding affinity in units of concentration. High values mean a looser complex, low ones a tighter complex.

First the molecules themselves.
B1: g28v2-D46-7_CLK09 (antibody, V domains shown)
VH: QVQLVQSGAEVKKPGASVKVSCKASGYTFTGYHMHWVRQAPGQGPEWMGWINPNGGGTNYAQKFQGRVTMTRDTSISTAYMELSRLRSDDTAVFYCAPVLADYGWRFDYWGQGTLVTVSS
VL: DIQMTQSPSSLSASVGGRVTITCQASQDISSYLNWYQQKPGKAPKLLIYDASNLEAGVPSRFSGSGSGTDFAFTISSLQPEDIATYYCQQYEFFGGGTKVEIK
B2: g28v2-D46-8_CLK09 (antibody, V domains shown)
VH: QVQLVQSGAEVKKPGASVRVSCKASGYTFTDYYMHWVRQAPGQGLEWMGWINPNNGGINYAHKFQGRVTMTRDTSISTAYMELSRLRSDDTAVYYCTTALAGHGWRFDYWGQGTLVTVSS
VL: DIQMTQSPSSLSASVGGRVTITCQASQGISTYLNWYQQKPGKAPKLLIYDVSNLETGVPSRFSGSGSGTDFTFTISSLQPEDFATYYCQQYEFFGGGTKVEIK
B3: g28v2-D58-10_CLK19 (antibody, V domains shown)
VH: QVQLVQSGAEVKKPGASVKVSCKASGYTFTDYHMHWVRQAPGQGLEWMGWINPRGGGTNYAQKFQGRVTMTRDTSISTAYMDLSRLRSDDTAVYYCTPVLATFRWRFDYWGQGTLVTVSS
VL: not shown
B4: g28v2-D58-1_CLK09 (antibody, V domains shown)
VH: QIQLVQSGAEVKKPGASVKVSCKASGYTFTDYFIHWVRQAPGQDLVWMGWINPIYGGTNYARSFQGRVTMTRDTSISTAFLELNRLRSDDTAVYYCATDLADNRWRFDYWGQGTLVTVSS
VL: DIQMTQSPSSLSASVGDRVTITCQASQDITSFLNWYQQKPGKAPKLLIYDASNLETGVPSRFSGSGSGTDFTFTISSLQPEDIATYYCQQYEFFGGGTKVEIK
B5: g28v2-D46-9_CLK19 (antibody, V domains shown)
VH: QVQLVQSGAEVKKPGASVRVSCKASGYTFTGYYMHWVRQAPGQGLEWMGWINPNNGGVNYAHKFQGRVTMTRDTSISTAYMELSRLRSDDTAVYYCTTALAGHGWRFDYWGQGTLVTVSS
VL: DIQMTQSPSSLSAYVGDRVTITCQASQDISNYLNWYQQIPGKAPKLLIYDASNLEAGVPSRFSGSRSGADFTFTISSLQPEDIATYYCQQYATFGPGTKVDIK
B6: g28v2-D46-4_CLK19 (antibody, V domains shown)
VH: QVQLVQSGAEVKKPGAAVKVSCKASGYTFTDYYIHWVRQAPGQGLEWMGWINPTYGGTNYAQKFQDRVTMTRDTSISTTYMELRRLKSDETAVYYCTTVMADYRWPFDYWGQGTLVTVSS
VL: DIQMTQSPSSLSASVGDRVTISCQASQDINNYLNWYQQKPGKAPKLLIYDTSNLGTGVPSRFSGSGSGTDFTFTISSLQPEDIGTYYCQQYDTFGPGTKVDIK
B7: g28v2-D46-6_CLK09 (antibody, V domains shown)
VH: QVQLVQSGAEVKKPGASVKVSCKASGYTFTDYYMHWVRQAPGQGPEWMGWLNPNNGGRNFARKFQDRVTVTRDTSLSTAYMELSRLRSDDTAVYYCARVGEKWTFDIWGQGTMVTVSS
VL: DIQMTQSPSSLSASVGGRVTITCQASQDISNYLNWYQQKPGKAPKLLIYDVSNLETGVPSRFSGSGSGTDFTFTISSLQPEDIATYYCQQYEFFGGGTKVEIK
B8: g28v2-D46-5_CLK19 (antibody, V domains shown)
VH: QVQLLQSGDEVKKPGASVRVSCKASGYTFTAYYLHWVRQAPGQGLEWMGWLYPQSGGTNYAQRFQGRVTMTRDTSISTAFMELSRLRSDDTAVYYCAPVLADYRWRFAYWGQGTLVTVSS
VL: DIQMTQSPSSLSASVGDRVTITCQASQDINNYLNWYQQKPGKAPKLLIYDTTNLEIGVPSRFSGSGSGTDFTFTISSLQPEDIATYYCQQYAAFGPGTKVDIK
B9: g28v2-D58-11_CLK09 (antibody, V domains shown)
VH: QVQLVQSGAEVKKPGASVKVSCKASGYTFTDYHIHWVRQAPGQGLEWMGWINPRGGGTNYAQKFQGRVTMTRDTSISTAYMDLSRLRSDDTAVYYCTPVLATFRWRFDYWGQGTLVTVSS
VL: DIQMTQSPSSLSASVGDRVTITCQASQDIRNYLNWYQQKPGKAPKLLIYDASNFETGVPSRFSGSGSGTDFTFTISSLQPEDIATYYCQQYEFFGGGTKVEIK

The assay concerns the target eOD-GT8 (monomeric ligand) (Human immunodeficiency virus 1, …).
In turn, B1 returned a Kd of 57.3 nM. This lies in the double-digit nanomolar range.
B2 gave a Kd of 0.303 nM.
Under B3 stands 3.69 nM; under B4, 20.7 nM; under B5, 0.0475 nM.
Take B6: the dissociation constant (Kd) is 0.106 nM.
Under B7 stands 0.211 nM.
The result for B8 reads 19.7 nM; that for B9, 3.65 nM.
